2 molecules from PMC10315710, “Diacylglycerol kinase ζ interacts with sphingomyelin synthase 1 and sphingomyelin synthase‐related protein via different regions” (FEBS Open Bio, 2023) can be followed below.

This assay deals with T1, Twin‐Strep (TS)‐tagged DGKζ (TS‐DGKζ) (human, UniProt Q13574 1-928).
T1 construct: full-length (FL) DGKζ (DGKζ1, 104 kDa), human; no cleavage is reported and the protein is detected by anti-TS; also called purified DGKζ; source: HEK293 cells, purified (Strep-Tactin XT beads, without detergents); not shown: Twin-Strep, N-terminal, kept
Put plainly: pull-down; purified GST-SMS1-CT or GST-SMSr-NT on glutathione-Sepharose beads, purified Twin-Strep-tagged DGKζ added for 2 h at 4 °C; 20 mM Tris-HCl pH 7.5, 150 mM NaCl, 1 mM EDTA, 0.1% Triton X-100; western blot with anti-GST and anti-TS. As to conditions: both partners purified. Background: Immunoblotting shows a protein as a band on a membrane.

T1 sequence (Q13574 whole entry): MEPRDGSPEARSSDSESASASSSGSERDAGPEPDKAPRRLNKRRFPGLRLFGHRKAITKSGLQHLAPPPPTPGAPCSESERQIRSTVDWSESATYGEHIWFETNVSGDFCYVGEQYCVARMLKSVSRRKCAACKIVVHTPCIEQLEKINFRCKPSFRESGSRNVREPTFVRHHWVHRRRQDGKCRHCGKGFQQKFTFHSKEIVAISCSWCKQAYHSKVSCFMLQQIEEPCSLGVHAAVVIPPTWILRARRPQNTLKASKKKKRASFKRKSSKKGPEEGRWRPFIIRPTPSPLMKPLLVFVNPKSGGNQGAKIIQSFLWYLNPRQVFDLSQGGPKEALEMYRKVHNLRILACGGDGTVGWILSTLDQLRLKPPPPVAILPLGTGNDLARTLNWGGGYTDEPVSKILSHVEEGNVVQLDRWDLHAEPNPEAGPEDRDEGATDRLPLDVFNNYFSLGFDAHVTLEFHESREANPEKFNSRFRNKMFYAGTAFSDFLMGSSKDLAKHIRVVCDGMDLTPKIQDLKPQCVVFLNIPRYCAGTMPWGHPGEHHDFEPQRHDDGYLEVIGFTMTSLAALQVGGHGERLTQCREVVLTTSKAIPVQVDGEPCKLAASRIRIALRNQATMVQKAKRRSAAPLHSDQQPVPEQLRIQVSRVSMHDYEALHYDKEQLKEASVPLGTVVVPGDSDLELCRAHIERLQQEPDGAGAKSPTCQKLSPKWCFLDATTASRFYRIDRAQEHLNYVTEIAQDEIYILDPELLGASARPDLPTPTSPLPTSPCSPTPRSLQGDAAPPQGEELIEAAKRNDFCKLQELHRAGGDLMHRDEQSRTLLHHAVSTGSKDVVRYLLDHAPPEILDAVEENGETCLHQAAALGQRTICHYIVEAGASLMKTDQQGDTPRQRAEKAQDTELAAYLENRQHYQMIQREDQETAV

B1: GST‐SMS1‐CT (domain or fragment, human, UniProt Q86VZ5 348-413, looked up)
chain: HTMANQQVLKEASQMNLLARVWWYRPFQYFEKNVQGIVPRSYHWPFPWPVVHLSRQVKYSRLVNDT
notes: SMS1, C-terminal cytosolic region; SMS1-CT is defined as aa 348–413; also called GST-fused SMS1‐CT; GST-tagged SMS1‐CT; source: bacterially expressed, purified (glutathione-Sepharose beads); not shown: GST, N-terminal, kept
For the molecule B1, the binding result is recorded as “binds”.

B2: GST‐SMSr‐NT (domain or fragment, human, UniProt Q96LT4 1-151, looked up)
chain: MAGPNQLCIRRWTTKHVAVWLKDEGFFEYVDILCNKHRLDGITLLTLTEYDLRSPPLEIKVLGDIKRLMLSVRKLQKIHIDVLEEMGYNSDSPMGSMTPFISALQSTDWLCNGELSHDCDGPITDLNSDQYQYMNGKNKHSVRRLDPEYWK
notes: SMSr, N-terminal cytosolic region (contains SAMD); SMSr-NT is defined as aa 1–151; also called GST-fused SMSr‐NT; GST-tagged SMSr‐NT; source: bacterially expressed, purified (glutathione-Sepharose beads); not shown: GST, N-terminal, kept
Consider B2, for which the binding result was “binds”.
